Assay [1] concerns the target T1, Abz-GGFLRKHGQ-EDDnp (Rattus norvegicus, UniProt P35559).
T1 construct: begin at methionine 42, which is believed to be the in vivo start site, and extend through the native C-terminal residue leucine 1019; hexahistidine with linker holding a TEV protease site (N, cleaved yes); made in house; host or cells: SF9 insect cells (baculovirus, pFastBac HTb)
T1 sequence (P35559 42-1019): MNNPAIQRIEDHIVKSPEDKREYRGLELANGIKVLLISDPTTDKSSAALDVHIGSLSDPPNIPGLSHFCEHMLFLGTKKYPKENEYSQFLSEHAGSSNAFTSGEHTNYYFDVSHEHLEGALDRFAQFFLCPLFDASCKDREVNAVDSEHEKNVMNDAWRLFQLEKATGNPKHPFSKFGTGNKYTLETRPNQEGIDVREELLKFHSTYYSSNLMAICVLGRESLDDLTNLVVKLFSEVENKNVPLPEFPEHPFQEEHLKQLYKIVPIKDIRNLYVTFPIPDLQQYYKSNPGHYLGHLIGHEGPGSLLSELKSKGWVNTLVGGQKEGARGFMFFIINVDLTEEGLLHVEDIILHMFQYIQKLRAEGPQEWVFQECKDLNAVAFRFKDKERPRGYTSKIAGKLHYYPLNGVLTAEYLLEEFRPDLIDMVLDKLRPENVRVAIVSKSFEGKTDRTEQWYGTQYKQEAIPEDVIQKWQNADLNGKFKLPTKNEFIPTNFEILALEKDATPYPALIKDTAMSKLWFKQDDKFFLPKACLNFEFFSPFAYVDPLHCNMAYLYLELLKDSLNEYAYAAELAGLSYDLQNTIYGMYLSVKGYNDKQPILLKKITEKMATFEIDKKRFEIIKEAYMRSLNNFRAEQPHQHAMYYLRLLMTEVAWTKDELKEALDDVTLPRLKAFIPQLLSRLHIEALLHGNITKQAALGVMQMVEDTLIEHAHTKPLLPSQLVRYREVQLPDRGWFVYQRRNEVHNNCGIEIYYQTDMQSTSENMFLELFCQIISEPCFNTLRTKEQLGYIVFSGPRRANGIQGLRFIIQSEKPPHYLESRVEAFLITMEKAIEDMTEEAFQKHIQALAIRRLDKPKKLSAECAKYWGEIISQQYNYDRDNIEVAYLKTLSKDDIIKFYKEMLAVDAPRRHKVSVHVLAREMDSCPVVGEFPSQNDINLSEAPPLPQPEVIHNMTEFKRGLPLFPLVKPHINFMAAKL
The following applies: reference [15]; cited from earlier work.

Assay [2] deals with T2, Abz-GGFLRKHGQ-EDDnp (Rattus norvegicus, UniProt P35559).
T2 construct: hexahistidine (N); made in house; host or cells: Sf9 insect cells (baculovirus, pFastBac HTb)
T2 sequence (P35559 41-1019): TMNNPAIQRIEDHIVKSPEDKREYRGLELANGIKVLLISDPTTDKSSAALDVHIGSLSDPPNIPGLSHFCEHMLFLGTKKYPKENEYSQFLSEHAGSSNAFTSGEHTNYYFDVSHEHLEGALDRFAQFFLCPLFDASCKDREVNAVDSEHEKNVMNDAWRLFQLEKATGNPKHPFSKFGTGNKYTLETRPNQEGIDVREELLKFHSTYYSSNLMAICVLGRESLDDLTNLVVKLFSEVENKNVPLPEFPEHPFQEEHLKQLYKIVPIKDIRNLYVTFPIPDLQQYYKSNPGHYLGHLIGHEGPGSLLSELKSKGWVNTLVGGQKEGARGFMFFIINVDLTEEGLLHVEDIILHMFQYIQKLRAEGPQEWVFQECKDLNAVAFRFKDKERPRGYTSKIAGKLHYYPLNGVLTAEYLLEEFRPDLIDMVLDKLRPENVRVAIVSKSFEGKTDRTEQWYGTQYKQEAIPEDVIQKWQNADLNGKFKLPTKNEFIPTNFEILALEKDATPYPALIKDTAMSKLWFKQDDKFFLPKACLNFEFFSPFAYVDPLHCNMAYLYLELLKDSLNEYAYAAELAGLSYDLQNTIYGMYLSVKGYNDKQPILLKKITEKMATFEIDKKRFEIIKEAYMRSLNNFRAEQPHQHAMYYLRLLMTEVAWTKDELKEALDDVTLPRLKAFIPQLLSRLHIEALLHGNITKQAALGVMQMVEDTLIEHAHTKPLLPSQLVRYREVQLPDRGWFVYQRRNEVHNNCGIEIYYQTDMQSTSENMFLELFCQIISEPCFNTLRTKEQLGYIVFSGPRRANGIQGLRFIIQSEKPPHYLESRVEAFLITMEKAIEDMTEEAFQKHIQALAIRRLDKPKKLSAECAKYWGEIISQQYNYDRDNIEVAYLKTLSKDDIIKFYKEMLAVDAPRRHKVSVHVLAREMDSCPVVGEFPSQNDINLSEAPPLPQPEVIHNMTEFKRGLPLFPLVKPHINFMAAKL
The experiment in a line: Activation by ATP of Abz-[…]-EDDnp hydrolysis, IDE and ATP binding site mutants. In kind it is biochemical. Particulars: 10 μM Abz-GGFLRKHGQ-EDDnp as substrate. The protocol:
Activity was determined in 50 mM Tris-HCl, pH 7.4 with 10 μM Abz-[…]-EDDnp (SEQ ID NO:3) as substrate at the indicated concentrations of ATP (panel A), PPPi (panel B) or, TNP-ATP (panel C). Each reaction contained 0.5 μg of enzyme.
IDE activity was determined by measuring the increase in fluorescence that occurs when the enzyme cleaves the internally quenched fluorogenic substrate Abz-[…]-EDDnp (SEQ ID NO:3) at the R—K bond (Song et al., Journal of Biologial Chemistry 276, 1152-1155 (2001)). The reaction was followed on a SpectraMax Gemini XS fluorescence plate reader using an excitation and emission wavelengths of 318 nm and 419 nm, respectively. Initial velocities were determined using SoftMax Pro 4.0 and kinetic constants calculated using GraphPad Prism 4.0. ATPase activity was measured by following Pi release with acid-molybdate as described by Harder et al. (Harder et al., Biochemical Journal 298 (Pt 2), 395-401 (1994)).

B1: IDE: Native rat insulin degrading enzyme (SEQ ID NO:1), expressed as hexahistidine fusion protein in Sf9 insect cells (protein, listed as Rattus norvegicus)
chain: MRNGLVWLLHPALPSTLHSILGARPPPVKRLCGFPKQIYSTMNNPAIQRIEDHIVKSPEDKREYRGLELANGIKVLLISDPTTDKSSAALDVHIGSLSDPPNIPGLSHFCEHMLFLGTKKYPKENEYSQFLSEHAGSSNAFTSGEHTNYYFDVSHEHLEGALDRFAQFFLCPLFDASCKDREVNAVDSEHEKNVMNDAWRLFQLEKATGNPKHPFSKFGTGNKYTLETRPNQEGIDVREELLKFHSTYYSSNLMAICVLGRESLDDLTNLVVKLFSEVENKNVPLPEFPEHPFQEEHLKQLYKIVPIKDIRNLYVTFPIPDLQQYYKSNPGHYLGHLIGHEGPGSLLSELKSKGWVNTLVGGQKEGARGFMFFIINVDLTEEGLLHVEDIILHMFQYIQKLRAEGPQEWVFQECKDLNAVAFRFKDKERPRGYTSKIAGKLHYYPLNGVLTAEYLLEEFRPDLIDMVLDKLRPENVRVAIVSKSFEGKTDRTEQWYGTQYKQEAIPEDVIQKWQNADLNGKFKLPTKNEFIPTNFEILALEKDATPYPALIKDTAMSKLWFKQDDKFFLPKACLNFEFFSPFAYVDPLHCNMAYLYLELLKDSLNEYAYAAELAGLSYDLQNTIYGMYLSVKGYNDKQPILLKKITEKMATFEIDKKRFEIIKEAYMRSLNNFRAEQPHQHAMYYLRLLMTEVAWTKDELKEALDDVTLPRLKAFIPQLLSRLHIEALLHGNITKQAALGVMQMVEDTLIEHAHTKPLLPSQLVRYREVQLPDRGWFVYQRRNEVHNNCGIEIYYQTDMQSTSENMFLELFCQIISEPCFNTLRTKEQLGYIVFSGPRRANGIQGLRFIIQSEKPPHYLESRVEAFLITMEKAIEDMTEEAFQKHIQALAIRRLDKPKKLSAECAKYWGEIISQQYNYDRDNIEVAYLKTLSKDDIIKFYKEMLAVDAPRRHKVSVHVLAREMDSCPVVGEFPSQNDINLSEAPPLPQPEVIHNMTEFKRGLPLFPLVKPHINFMAAKL
modifications: hexahistidine tag; wild-type Insulin Degrading Enzyme (IDE) from rat
As to B1, the “increase of cleavage rate of Abz-GGFLRKHGQ-EDDnp by ATP” value with Abz-GGFLRKHGQ-EDDnp [1] was “more than 40 fold”. For the same molecule, in the assay with Abz-GGFLRKHGQ-EDDnp [2], the “activation by ATP” value was “roughly 150 fold”.

The values are drawn from patent US8632989B1, “Mutant insulin degrading enzyme and methods of use” (University of Kentucky Research Foundation, priority 2011, dated 2014).
